Patent US10196454B2, “Anti-PMEL17 antibodies and immunoconjugates” (GENENTECH, INC., priority 2012, dated 2019)

Key:
1300mel melanoma cells = assay: Internalization of anti-PMEL17 antibody, co-staining with lysosomal marker LAMP1; type: cell-based
human PMEL17 [1] = biological target: T1, human PMEL17 (Homo sapiens, UniProt P40967); assay: FACS screening of anti-PMEL17 hybridoma antibodies on live cells; type: binding; conditions: live melanoma cells, normal human melanocytes, PC3 cell line stably expressing PMEL17 cDNA
T1 construct: endogenous in cells; host or cells: SK-MEL-23, 1300mel, SKMEL5 (ATCC HTB-70), UACC257, normal melanocytes (Invitrogen); also PC3 stably expressing human PMEL17
T1 sequence (P40967 25-469): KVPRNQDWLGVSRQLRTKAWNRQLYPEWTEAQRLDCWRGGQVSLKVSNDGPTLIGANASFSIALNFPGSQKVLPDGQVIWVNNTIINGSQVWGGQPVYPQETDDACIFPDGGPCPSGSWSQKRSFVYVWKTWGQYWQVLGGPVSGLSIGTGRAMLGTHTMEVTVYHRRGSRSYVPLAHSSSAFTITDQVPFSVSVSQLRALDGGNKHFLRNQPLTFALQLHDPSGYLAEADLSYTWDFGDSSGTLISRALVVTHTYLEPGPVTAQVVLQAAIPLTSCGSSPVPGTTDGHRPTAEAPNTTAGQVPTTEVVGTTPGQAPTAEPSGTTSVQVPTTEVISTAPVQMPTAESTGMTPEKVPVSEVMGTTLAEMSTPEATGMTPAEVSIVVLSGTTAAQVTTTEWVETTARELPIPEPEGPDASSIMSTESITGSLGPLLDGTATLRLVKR
T1 sequence (P40967 470-661): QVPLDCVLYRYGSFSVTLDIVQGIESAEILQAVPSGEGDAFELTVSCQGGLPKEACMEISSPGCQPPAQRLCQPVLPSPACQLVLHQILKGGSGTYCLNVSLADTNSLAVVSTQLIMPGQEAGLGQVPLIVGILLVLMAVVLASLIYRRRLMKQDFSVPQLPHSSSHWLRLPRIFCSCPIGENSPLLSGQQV

human PMEL17 [2] = assay: as above; type: binding; conditions: parental PC3 cell line
PMEL17 = biological target: T2, PMEL17 (Homo sapiens, UniProt P40967); assay: Species cross-reactivity by FACS, 293S cells stably transfected with gD tagged PMEL17; type: binding; design: gD tag (N); expressed in transfected cells; conditions: 10 μg/ml antibody
T2 sequence (P40967 25-661): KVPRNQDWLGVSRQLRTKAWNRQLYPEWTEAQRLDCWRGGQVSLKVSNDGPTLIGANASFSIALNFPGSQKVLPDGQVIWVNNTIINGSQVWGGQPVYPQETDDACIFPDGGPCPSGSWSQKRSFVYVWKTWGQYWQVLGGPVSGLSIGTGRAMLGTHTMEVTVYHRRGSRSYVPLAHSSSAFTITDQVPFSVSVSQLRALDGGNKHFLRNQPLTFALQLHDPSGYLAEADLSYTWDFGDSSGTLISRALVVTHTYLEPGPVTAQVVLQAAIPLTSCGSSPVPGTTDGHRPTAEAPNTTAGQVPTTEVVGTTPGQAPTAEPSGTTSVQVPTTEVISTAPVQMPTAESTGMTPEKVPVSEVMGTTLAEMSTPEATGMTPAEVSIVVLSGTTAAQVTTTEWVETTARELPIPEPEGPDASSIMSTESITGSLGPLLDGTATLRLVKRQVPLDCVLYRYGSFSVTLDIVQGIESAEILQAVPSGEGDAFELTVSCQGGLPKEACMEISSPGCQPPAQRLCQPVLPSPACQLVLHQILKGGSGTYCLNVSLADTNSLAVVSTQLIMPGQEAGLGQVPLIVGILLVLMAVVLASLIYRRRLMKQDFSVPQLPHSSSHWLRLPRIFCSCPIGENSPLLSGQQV
Method: (§1) Antibody 17A9 was tested to determine if it cross-reacts with PMEL17 from species other than human. […] All of the sequences include the signal sequence except for the cynomolgus monkey PMEL17. Residues that are identical among all four species are indicated by asterisks (*). In the region where the rat sequence has a deletion, residues that are identical among the remaining three species are indicated by a plus (+). Binding to each species of PMEL17 was determined by FACS analysis using 293S cells stably transfected with an N-terminal gD tagged PMEL17 (human, cynomolgus monkey, rat, or mouse PMEL17); stained with 10 μg/ml 17A9 antibody; and detected with R-Phycoerythrin conjugated goat anti-mouse antibody.

mouse PMEL17 = biological target: T3, mouse PMEL17 (Mus musculus, UniProt Q60696); assay: as above; type: binding; conditions: 10 μg/ml antibody
T3 construct: gD tag (N); expressed in transfected cells
T3 sequence (Q60696 24-626): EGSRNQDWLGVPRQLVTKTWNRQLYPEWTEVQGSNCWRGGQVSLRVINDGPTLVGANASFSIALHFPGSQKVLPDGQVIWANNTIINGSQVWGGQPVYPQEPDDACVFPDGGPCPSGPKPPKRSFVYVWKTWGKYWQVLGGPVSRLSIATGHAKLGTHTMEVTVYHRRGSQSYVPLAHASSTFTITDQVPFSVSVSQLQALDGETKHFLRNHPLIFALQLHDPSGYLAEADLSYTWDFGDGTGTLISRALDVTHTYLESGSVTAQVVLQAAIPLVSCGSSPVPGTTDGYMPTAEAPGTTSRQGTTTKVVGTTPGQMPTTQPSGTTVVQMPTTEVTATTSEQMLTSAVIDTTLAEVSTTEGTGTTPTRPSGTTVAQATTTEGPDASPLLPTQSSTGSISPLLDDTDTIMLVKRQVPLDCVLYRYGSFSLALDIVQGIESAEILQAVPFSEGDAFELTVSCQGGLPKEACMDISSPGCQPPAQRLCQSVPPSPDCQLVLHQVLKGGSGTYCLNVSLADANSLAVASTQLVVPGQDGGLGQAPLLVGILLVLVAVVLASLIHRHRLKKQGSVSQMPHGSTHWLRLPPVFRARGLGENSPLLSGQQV
Method: as §1

cynomolgus monkey PMEL17 = assay: as above; type: binding; conditions: 10 μg/ml antibody
Method: as §1

rat PMEL17 = assay: as above; type: binding; conditions: 10 μg/ml antibody
Method: as §1

Sequence of cynomolgus monkey PMEL17 (as listed by the source): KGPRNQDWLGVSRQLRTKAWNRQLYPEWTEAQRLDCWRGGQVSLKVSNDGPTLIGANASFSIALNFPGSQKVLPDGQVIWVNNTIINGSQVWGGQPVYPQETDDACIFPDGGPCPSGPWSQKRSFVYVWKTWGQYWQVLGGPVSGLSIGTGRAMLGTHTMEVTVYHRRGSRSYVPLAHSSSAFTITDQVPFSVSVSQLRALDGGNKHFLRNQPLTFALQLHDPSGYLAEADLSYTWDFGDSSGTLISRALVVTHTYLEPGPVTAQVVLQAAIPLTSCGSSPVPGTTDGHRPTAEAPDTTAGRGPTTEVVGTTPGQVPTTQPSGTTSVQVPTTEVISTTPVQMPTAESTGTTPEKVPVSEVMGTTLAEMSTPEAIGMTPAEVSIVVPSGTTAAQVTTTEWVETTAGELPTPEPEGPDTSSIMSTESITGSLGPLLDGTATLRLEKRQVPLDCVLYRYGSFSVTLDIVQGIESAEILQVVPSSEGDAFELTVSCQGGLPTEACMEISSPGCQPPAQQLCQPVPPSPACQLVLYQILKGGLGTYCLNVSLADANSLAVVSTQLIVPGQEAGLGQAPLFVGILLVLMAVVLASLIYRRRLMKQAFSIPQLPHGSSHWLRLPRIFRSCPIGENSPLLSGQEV

B1: 17A9 (antibody, listed as Mus musculus, V domains shown)
VH: EVQLQQSGPELVKPGASMKISCKSSGYSFTRYTMNWVKQSHGKNLEWIGVINPYNGGTVYNQKFKGKATLTVDKSSSTAYMELLSLTSEDSAVYYCARTDYDGYAMDYWGQGTSVTVSS
VL: DVQITQSPSYLAASPGETITINCRATKSISKYLAWYQEQPGKTNNLLIYSGSTLQSGIPSRFSGSGSGTDFTLTISSLEPEDFAMYYCQQHNEYPYTFGSGTKLEIK
overlap of antibody and LAMP1 staining within the cells (1300mel melanoma cells; 2 μg/ml, 2 hours or 20 hours, 37° C.): considerable overlap | uptake into additional PMEL17+ melanoma cell lines (1300mel melanoma cells; 526mel, SK-MEL-5, UACC257): Rapid uptake | FACS reactivity with live cells expressing PMEL17 (human PMEL17 [1]): reacted strongly | FACS reactivity with parental PC3 cell line (human PMEL17 [2]): not the parental PC3 cell line | binding to human PMEL17 by FACS (PMEL17): bind | binding to mouse PMEL17 by FACS (mouse PMEL17): bind | binding to cynomolgus monkey PMEL17 by FACS (cynomolgus monkey PMEL17): bind | binding to rat PMEL17 by FACS (rat PMEL17): bind
